Assay results: US6399314B1, “Methods of detection of amyloidogenic proteins” (American Cyanamid Company, priority 1999, dated 2002)

Legend:
[1] = target: T1, aggregated peptide (Aβ(1-40)) (Homo sapiens, UniProt P05067); assay: Quenching of thioflavin fluorescence by titration with Congo red; format: binding; settings: for Mode of binding to aggregated peptide: Congo red and thioflavin together on aggregated peptide
T1 construct: Aβ(1-40) was purchased from Anaspec (San Jose, Calif.); purchased Anaspec (San Jose, Calif.); host or cells: synthetic peptide
From the text: In these experiments, thioflavin was complexed with aggregated peptide prior to titration with increasing amounts of Congo red. The resulting decrease in fluorescence intensity is due to energy transfer of the fluorescence emission of thioflavin to Congo red. Therefore, assays that rely on thioflavin alone are likely to generate false positives in primary assays, while spectroscopic assays described in this invention would identify the more promising inhibitors of amyloidogenesis.
(§1) Spectroscopic Assays. To determine the extent of aggregation, aliquots of the peptide were removed at various time intervals (up to nine hours), and diluted into PBS buffer-containing 10 μM thioflavin. The final concentrations of peptide and thioflavin in the fluorescence assay were 10 μM. The fluorescence intensities of the peptide-thioflavin complex were measured at excitation and emission wavelengths of 435 and 485 nm, respectively, after the reaction had equilibrated for five minutes. Fluorescence spectral scans were made using 435 nm excitation and 485 nm emission wavelengths using a SPEX™ fluorolog-2 spectrofluorometer (Instruments S.A.®, Jobin Yvon-Spex, Edison, N.J.). For the Congo red experiments, peptide-thioflavin complex was titrated with increasing concentrations of Congo red from 0.1 to 3.5 micromolar concentrations. The fluorescence intensity changes were measured at the above-mentioned spectral wavelengths. When fluorescence intensities were measured in a plate reader, the peptide was diluted into PBS buffer-containing 10 μM thioflavin, to a final volume of 100 μL.

[2] = test system: rat fetal (E18) hippocampal cultures; assay: Neurotoxicity assay (LDH release); format: cell-based; settings: for Toxicity to neuronal cultures: 72 hour toxicity assay
Procedure: Neurotoxicity Assay. Peptide was aggregated according to the end points determined in the CD and fluorescence assay and applied to primary neuronal cell cultures to assess cytotoxicity of the aggregated peptide. The release of LDH was used to monitor cell viability in the presence of Aβ and Congo red.
Aβ(1-40) toxicity was assessed using eight day-in-vitro (DIV) rat fetal (E18) hippocampal cultures. The cells were cultured in 48-well dishes previously coated with […] 0.1 mg/ml of poly-L-lysine (100 μl/well) and, subsequently, with 100 μl/well of 5 μg/ml of mouse laminin. The cells were seeded at a density of 92,300 cells/well in a total volume of 500 μl of NEUROBASAL™ medium containing 1XB27 supplement, 5% heat inactivated and qualified fetal bovine serum, 0.5 mM glutamine, 50 μ/ml penicillin, and 0.05 mg/ml streptomycin, and were initially placed in humidified 5% CO2 in air. After twenty-four hours, the medium was replaced with fresh medium lacking the penicillin, streptomycin, and fetal bovine serum and the cultures were thereafter maintained in air containing 5% CO2 and 9% O2. Fresh medium was substituted into each well on day five. On the seventh day in vitro, the medium was replaced with antioxidant free B27 supplemented medium lacking the penicillin, streptomycin, and fetal bovine serum. The toxicity test was initiated on the eighth day in vitro by substituting into each well 500 μl of the medium used on day seven (as the control treatment) or an experimental solution prepared with the final (control) medium. Each experimental solution was tested on cultures contained in five wells. Toxicity was assessed on the eleventh day in vitro using the lactic acid dehydrogenase (LDH; Sigma 340-UV) assay. Aggregated peptide was diluted five-fold to a final concentration of 10 uM, for the toxicity assays. Complexes of Congo red with preformed aggregates and those formed in co-aggregates were tested in the cellular assays along with aggregated peptide in vehicle controls.

β-amyloid protein 1-40 = target: T2, β-amyloid protein 1-40 (Homo sapiens, UniProt P05067); assay: Fluorescence spectroscopy of Congo red complexes with amyloid peptide; format: binding
T2 construct: Aβ (1-40) was dissolved in 100% hexafluoroisopropanol
From the text: 3. Fluorescence spectroscopy was used to differentiate complexes of Congo red. Congo red binds to preformed fibrils as well as to intermediate aggregate forms of the amyloid polypeptide. […] The fluorescence excitation spectrum of Congo red in the aggregate-bound state is also red shifted relative to the free form of the […]. Changes in the fluorescence properties of Congo red are dependent on the aggregated state of the […]. The differences in the observed spectral characteristics of the coaggregates and complexes of the fibrillar polypeptide with Congo red are due to the differences in the relative hydrophobicity of the binding sites and to the number of bound Congo red molecules in the complexes with preformed fibrils and coaggregates.
The fluorescence emission spectra of complexes of Congo red were obtained after diluting the peptide fivefold into a buffered solution. Congo red was added to freshly diluted fibrillar peptide and the fluorescence spectrum was scanned at a final concentration of 10 μM of peptide. The concentrations of peptide and Congo red in the fluorescence assay were 10 μM and 8.6 μM respectively. The differences in the fluorescence intensities and emission wavelengths of the coaggregates and preformed aggregate-complexes, were due to the relative differences in the hydrophobicity of the binding sites in the two instances.

Aβ (1-40) = target: T3, Aβ (1-40) (Homo sapiens, UniProt P05067); assay: CD spectroscopy of peptide aged in the presence of Congo red (coaggregates); format: biochemical; settings: far-UV CD
T3 construct: Aβ (1-40) was dissolved in 100% hexafluoroisopropanol
From the text: Circular Dichroism Spectroscopy. Conformational change of the peptide from the random coil to the β-sheet form, during aging, was monitored using changes to the molar ellipticity of the peptide at 200, 218, or 225 nm. This assay was also used to determine if the changes in the CD spectra occurred concurrently with the changes in the fluorescence spectra of thioflavin. The CD spectrum of the peptide was scanned at various time points to correlate the formation of thioflavin-binding macromolecular assemblies with the appearance of β-sheet conformation.
CD spectra were recorded on a JASCO™ spectropolarimeter model J715 (Jasco, Easton, Md.) at room temperature in a 0.1 cm pathlength cell. Typically, the peptide samples were aliquoted at various time intervals for fluorescence and the CD spectra were scanned using the remaining solution. The CD spectra of the peptide were recorded in the far-UV between 190-260 nm. The spectral results are expressed as deg.[…].dmol^−1.
Amyloid peptide (Aβ) was aged in the absence and presence of Congo red as described below: Aβ (1-40) was dissolved in 100% hexafluoroisopropanol to produce a final concentration of 200 or 400 μM. To aid dissolution of peptide, the solution was sonicated briefly, for about five seconds. An appropriate volume of the peptide solution was transferred to an amber vial and the solvent was evaporated under a stream of nitrogen. […]

[3] = Thioflavin fluorescence assay of the extent of aggregation of Aβ(1-40) in different buffers/media; format: physicochemical; parameters: key to Percent Aggregation in HEPES: ++ indicates aggregates were formed but not quantitated because end point was not reached; settings: rotary shaker 500 rpm
From the text: Fluorescence Spectroscopy. Thioflavin binds amyloid fibrils to induce a characteristic hyperchromic fluorescence shift in the spectrum (LeVine, J. Exp. Clin. Invest., 2:1-6, 1995). The induced fluorescence due to thioflavin is specific for amyloid β-pleated fibrils, but not for other β-sheet structures or for the soluble oligomeric forms of the peptide. Free thioflavin is a weak fluorophore with an excitation maximum at 330 nm. Upon binding to the amyloid fibrils, the fluorescence of thioflavin is enhanced with a red shift in the excitation spectrum by 100 nm, relative to the free form. We have used the increase in fluorescence intensity at excitation and emission wavelengths of 440 nm and 485 nm, respectively, to characterize the aggregation event.
as §1
Preparation ofAmyloid Peptide. Aβ(1-40) was purchased from Anaspec (San Jose, Calif.) and its chemical purity was verified using reverse phase HPLC, ESI-MS and protein sequencing methods. The lyophilized peptide was dissolved in hexafluoroisopropanol (HFIP) solvent to aid in disaggregation of peptide. Peptide in HFIP solvent, was stored at −80° C. Prior to use, peptide solution was thawed and the solvent was evaporated under a stream of nitrogen. The peptide was dissolved in buffer to obtain a concentration of 50 μM, sonicated approximately twenty to forty seconds, and then vortexed briefly, approximately five seconds or less, to aid dissohltion of peptide. To determine the effects of media on the rates of aggregation, peptide was dissolved in one of the following buffers: PBS, 50 mM HEPES™ or in NEUROBASAL™ medium. Peptide solutions were dispensed into microtiter plates at a final concentration of […] in 100 μL. Aggregation was initiated by shaking plates continuously in a rotary shaker.

T1 sequence (P05067 672-711 limits assumed): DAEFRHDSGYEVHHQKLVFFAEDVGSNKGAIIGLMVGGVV
T2 sequence (P05067 672-711 limits assumed): as above
T3 sequence (P05067 672-711 limits assumed): as above

Nc1c(/N=N/c2ccc(-c3ccc(/N=N/c4cc(S(=O)(=O)[O-])c5ccccc5c4N)cc3)cc2)cc(S(=O)(=O)[O-])c2ccccc12.[Na+].[Na+] [Congo red]
Mode of binding to aggregated peptide [1]: non-competitively
Quenching of fluorescence of free thioflavin ([1]; free thioflavin): 50%
Quenching of fluorescence of peptide-bound thioflavin ([1]; peptide-bound thioflavin, Congo red 0.1 to 3.5 micromolar): greater than one order of magnitude
Effect on toxicity of Aβ ([2]; Congo red complexed with preformed aggregates and in co-aggregates): attenuates the toxicity
Neuroprotection of cell cultures exposed to amyloid peptide ([2]; hippocampal cultures, LDH release): neuroprotective
Fluorescence enhancement relative to the free form (β-amyloid protein 1-40; Congo red co-aggregated with the amyloid polypeptide): eight-fold
Fluorescence enhancement relative to the free form (β-amyloid protein 1-40; complex between preformed fibrils and Congo red): two-fold
Effect on aggregation rate of the peptide (Aβ (1-40)): slowed down

Aβ (1-40): synthetic β-amyloid peptide corresponding to the first 40 amino acids of Aβ, purchased from Anaspec
Percent Aggregation in HEPES ([3]; aggregation time 0 hr): 0%
Percent Aggregation in PBS ([3]; aggregation time 0 hr): 0%
Percent Aggregation in NEUROBASAL Medium ([3]; aggregation time 0 hr, relative to thioflavin/Aβ fluorescence at 0 and 4 hr): 0%
Percent Aggregation in HEPES ([3]; aggregation time 1 hr): 0%
Percent Aggregation in NEUROBASAL Medium ([3]; aggregation time 1 hr): 0%
Percent Aggregation in PBS ([3]; aggregation time 1 hr): 0%
Percent Aggregation in HEPES ([3]; aggregation time 2 hr): 0%
Percent Aggregation in NEUROBASAL Medium ([3]; aggregation time 2 hr): 76%
Percent Aggregation in PBS ([3]; aggregation time 2 hr): 51%
Percent Aggregation in HEPES ([3]; aggregation time 4 hr): ++
Percent Aggregation in NEUROBASAL Medium ([3]; aggregation time 4 hr): 100%
Percent Aggregation in PBS ([3]; aggregation time 4 hr): 100%
Toxicity to neuronal cultures ([2]; aggregated peptide (aged for four hours)): toxic
Toxicity to neuronal cultures ([2]; fresh peptide): non-toxic

Cc1ccc2c(c1)sc(-c1ccc(N(C)C)cc1)[n+]2C.[Cl-] [thioflavin, Thioflavin T]
Mode of binding to aggregated peptide [1]: non-competitively
